From publication PMC12384571

Columns and labels:
[1] = target: Human FcRn (neonatal Fc receptor for IgG) (human) (UniProt P55899); assay: ITC; 15 uM FcRn in the sample cell, titrated with 100 uM mAb from the syringe (9 injections of 3 uL); 25 °C; 1 x PBS, pH 6.0; independent fit model
hGHbp ECD (Homo sapiens) = hGHbp ECD (Homo sapiens) (UniProt P10912); assay: SPR; conditions: cited from earlier work
UniProt P10912, sequence (P10912 19-256): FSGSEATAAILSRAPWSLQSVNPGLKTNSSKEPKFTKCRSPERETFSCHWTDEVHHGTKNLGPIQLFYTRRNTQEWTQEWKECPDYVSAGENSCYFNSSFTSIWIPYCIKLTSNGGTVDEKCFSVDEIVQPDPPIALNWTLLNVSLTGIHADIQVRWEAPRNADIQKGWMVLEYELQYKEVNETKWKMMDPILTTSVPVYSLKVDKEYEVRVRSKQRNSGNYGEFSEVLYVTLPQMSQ

UniProt P55899, sequence (P55899 whole entry, looked up, the tested form may be a part): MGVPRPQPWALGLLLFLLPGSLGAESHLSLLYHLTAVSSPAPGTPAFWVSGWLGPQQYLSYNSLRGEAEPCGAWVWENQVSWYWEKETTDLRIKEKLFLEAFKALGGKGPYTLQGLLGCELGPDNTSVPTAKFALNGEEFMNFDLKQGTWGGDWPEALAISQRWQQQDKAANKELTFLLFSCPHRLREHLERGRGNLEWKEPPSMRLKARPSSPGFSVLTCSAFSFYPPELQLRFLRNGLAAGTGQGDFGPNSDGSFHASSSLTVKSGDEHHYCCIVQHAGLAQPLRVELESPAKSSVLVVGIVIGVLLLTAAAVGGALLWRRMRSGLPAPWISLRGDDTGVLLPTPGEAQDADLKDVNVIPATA

dH [1]	Substance	Kd (hGHbp ECD (Homo sapiens))
-12 kcal/mol	YTE mutant IgG mAb (IgGA-YTE) (antibody)	
	hGHwt (from UniProt P01241)	1.2 nM
-5.5 kcal/mol	wildtype IgG mAb (IgGAwt) (antibody)	
